From US20200239573A1 (CRESCENDO BIOLOGICS, published 2020)

Assays:
[1] = biological target: T1, human PD-1 expressed on cells (CHO human PD-1 cells) (human, UniProt Q15116 21-288); assay: cell-based or functional assay
[2] = biological target: T1, human PD-1 expressed on cells (CHO …); assay: FMAT epitope competition on CHO human PD-1 cells; competitor 1 nM 1.1-Strep
mouse PD-1 protein = biological target: T2, mouse PD-1 protein (mouse, UniProt Q02242 25-167); assay: HTRF binding, 2 nM mouse PD-1
T2 construct: Detected with anti human-Fc cryptate, so probably Fc tagged; also called mouse PD-1 (R&D Systems cat no. 1021-PD)
T2 sequence (looked up): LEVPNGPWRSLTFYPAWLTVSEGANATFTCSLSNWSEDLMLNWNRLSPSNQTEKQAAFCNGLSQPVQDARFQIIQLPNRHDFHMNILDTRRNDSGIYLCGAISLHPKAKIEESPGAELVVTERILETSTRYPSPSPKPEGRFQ
Method: e) Species Cross Reactivity Testing Purified […] were tested for their ability to bind to human PD-1 (R&D Systems cat no. 1086-PD), cynomolgus PD-1 (Acro Biosystems cat no. PD-1-05254) and mouse PD-1 (R&D Systems cat no. 1021-PD) in an HTRF Binding assay format. All reagents and serially diluted VH were prepared in assay buffer containing PBS, 0.1% BSA and 0.4M Potassium Fluoride. Samples or assay buffer (non-specific binding) were incubated with 2 nM human/cynomolgus or mouse PD-1, 1 nM Anti human-Fc Cryptate PAb (Cisbio cat. no. 61HFCKLB) and 30 nM anti His-D2 (CisBio cat no 61HISDLA) in black 384-shallow well assay plates for a minimum of 3 hours at room temperature. Time-resolved fluorescent emission at 620 nm and 665 nm was measured following excitation at 337 nm on the BMG PHERAstar plate reader. The HTRF ratio were calculated ((665 nm emission/620 nm emission)*10000) and the data corrected for (non-specific binding) to give the specific binding signal.

[3] = biological target: T1, human PD-1 expressed on cells (CHO …); assay: FMAT 1.57 epitope competition on CHO human PD-1 cells; competitor 1.57-Strep; sample kept 4 days in human serum
[4] = biological target: T1, human PD-1 expressed on cells (CHO …); assay: FMAT 1.57 epitope competition on CHO human PD-1 cells; competitor 1.57-Strep; sample kept 4 days in mouse serum
Method: (§1) For the epitope competition assay reagents were prepared in FMAT assay buffer. […] Plates were incubated for a minimum of 1.5 hours at room temperature then fluorescence measured in the FL2 (502 nm-537 nm) and FL5 (677-800 nm) channels on the Mirrorball plate reader (TTP) following excitation at 488 nm and 640 nm. Data was expressed as a % of the total binding control (i.e. % control) after subtraction of the background signal determined from the non-specific binding control wells.
Serum stability of VH and multivalent VH constructs was assessed by measurement of their activity following incubation for 0, 1, 4 or 7 days in mouse serum (Sigma M5905).

[5] = biological target: T3, human PD-1 on primary human CD4+ T cells (human, UniProt Q15116 21-288); assay: flow cytometry, PHA-stimulated human CD4+ T cells, donor 3
T3 sequence (Q15116 21-288): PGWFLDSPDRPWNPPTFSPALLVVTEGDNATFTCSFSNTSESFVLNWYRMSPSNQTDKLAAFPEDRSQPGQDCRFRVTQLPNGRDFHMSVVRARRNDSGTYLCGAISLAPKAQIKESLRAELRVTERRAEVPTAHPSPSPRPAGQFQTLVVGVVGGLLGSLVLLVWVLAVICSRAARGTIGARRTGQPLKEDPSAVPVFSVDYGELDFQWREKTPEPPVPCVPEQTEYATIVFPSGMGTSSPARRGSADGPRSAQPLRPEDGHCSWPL
Method: (§2) Binding of monovalent single domain antibodies and multivalent binding agents to T cells was measured using flow cytometry. […] T-cells were stimulated with 2.5 μg/ml PHA for 2-4 days in RPMI media supplemented with 10% FBS, 2 mM Glutamine, 1× Pen/Strep. Cells were transferred into 96 well plates (75000 per well), blocked for 10 mins with PBS/1% BSA, then incubated with serially diluted VH in staining buffer (PBS/1% BSA) for 1 hour at 4° C. Cells were washed with staining buffer by centrifugation then incubated with 10 μg/ml biotinylated Anti His antibody for 40 mins at 4° C. Cells were washed again then stained with Streptavidin Alexa Fluor-488 (10 μg/ml) and 1:5000 diluted Live Dead near IR stain (Molecular Probes cat no. L10119) for 30 mins at 4° C. After further washing cells were fixed and fluorescence measured by flow cytometry.

[6] = biological target: T1, human PD-1 expressed on cells (CHO …); assay: FMAT inhibition; 100 pM PD-L1-Fc on CHO human PD-1 cells
Method: as §1, with “All” for “For the epitope competition assay”, “reagents and serially diluted VH” for “reagents”, “2” for “a minimum of 1.5”

[7] = biological target: T3, human PD-1 on primary human CD4+ T cells; assay: flow cytometry, PHA-stimulated human CD4+ T cells, donor 2
Method: as §2

[8] = biological target: T3, human PD-1 on primary human CD4+ T cells; assay: flow cytometry, PHA-stimulated human CD4+ T cells, donor 1
Method: as §2

[9] = biological target: T1, human PD-1 expressed on cells (CHO …); assay: FMAT inhibition; 200 pM PD-L2 on CHO human PD-1 cells
Method: as §1, with “All” for “For the epitope competition assay”, “reagents and serially diluted VH” for “reagents”, “2” for “a minimum of 1.5”

T1 sequence (Q15116 21-288): as above

B1: Humabody® 1.92 (VHH)
VHH: EVQLVESGGGLVKPGGSLRLSCAASGFTFSDESMTWMRQAPGKGLEWVSYISSGGGVKFYADSVKGRFTISRDNAKNSLYLQMNSLRAEDTAVYYCAREAPLRLGESPHDAFDISGQGTMVTVSS
notes: human VH single domain antibody
Reporter Assay EC50 [1]: 13 nM | IC50 [2]: 0.79 nM | binding result (mouse PD-1 protein): no binding | IC50 [3]: 6.1 nM | IC50 [4]: 4.7 nM | EC50 [5]: 1.2 nM | IC50 [6]: 2.8 nM | EC50 [7]: 1.1 nM | EC50 [8]: 0.8 nM | IC50 [9]: 4 nM
